In PMC3839904, “The α-Proteobacteria Wolbachia pipientis Protein Disulfide Machinery Has a Regulatory Mechanism Absent in γ-Proteobacteria” (PLoS ONE, 2013):

Assays:
[1] = biological target: Wolbachia pipientis wMel α-DsbB (integral membrane protein) (Wolbachia pipientis wMel)
[2] = biological target: Wolbachia pipientis wMel α-DsbB (integral membrane protein) (Wolbachia pipientis wMel); remark: listed apart in the source
[3] = biological target: Wolbachia pipientis wMel α-DsbB (integral membrane protein) (Wolbachia pipientis wMel); remark: listed apart in the source
[4] = biological target: T1, α-DsbB (Wolbachia pipientis, UniProt Q73G63); test: UQ1 reduction, absorbance at […] nm; AMS gel shift; assay type: biochemical; settings: reduced α-DsbA1 […] as electron donor, pH […] beta-DDM, […]°C
T1 construct: gene WD_1099; full-length integral membrane protein, pET21a (NdeI/XhoI) in E. coli BL21(DE3)pLysS, beta-DDM solubilised, TALON and size exclusion purified
T1 sequence (Q73G63 1-173): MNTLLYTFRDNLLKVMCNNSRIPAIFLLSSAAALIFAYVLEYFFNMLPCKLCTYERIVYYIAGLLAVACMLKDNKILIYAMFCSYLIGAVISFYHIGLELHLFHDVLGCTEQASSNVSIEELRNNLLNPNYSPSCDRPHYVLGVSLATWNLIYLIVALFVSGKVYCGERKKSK

[5] = biological target: Wolbachia pipientis wMel α-DsbB (integral membrane protein) (Wolbachia pipientis wMel); remark: listed apart in the source
[6] = biological target: α-DsbB [SSCC] (the two cysteines of the first periplasmic loop replaced with serines) (Wolbachia pipientis wMel)

In the case of “α-DsbA1CA (α-DsbA1 variant with the cysteines of the non-catalytic disulfide replaced with alanine) (enzyme)”, the initial rate of oxidation of the peptide substrate (time-resolved fluorescence) by α-DsbA1CA with wt α-DsbB membranes [1] is reported as 0.00621 min⁻¹, the initial rate of UQ1 reduction (absorbance at 275 nm) with α-DsbB, UQ1 and reduced α-DsbA1CA, 30°C [2] is reported as 0.463 min⁻¹ and the gel-shift (AMS labelling) of the redox state of reduced α-DsbA1CA with α-DsbB and UQ1; oxidised variant against oxidised wt at 30 sec, 2 min, 5 min (3, 2 and 1.3 fold) [3] is reported as 3 fold.
`COC1=C(OC)C(=O)C(CC=C(C)C)=C(C)C1=O` [UQ1, ubiquinone-1] was tested, and the “UQ1 reduction, absorbance at 275 nm; AMS gel shift” value [4] was “UQ1 reduction was coupled with α-DsbB-mediated oxidation of α-DsbA1”.
“Wolbachia pipientis wMel α-DsbA1 (enzyme)” was tested, and the initial rate of oxidation of the peptide substrate (time-resolved fluorescence) by α-DsbA1 with α-DsbB membranes (endogenous UQ), pH 5.5 [5] was 0.00477 min^-1, the initial rate of UQ1 reduction (absorbance at 275 nm) with α-DsbB (50 nM), UQ1 (30 µM) and reduced α-DsbA1 (30 µM), 30°C [2] was 0.236 min⁻¹ and the reverse reaction: gel-shift of the oxidation of reduced α-DsbB [SSCC] by oxidized α-DsbA1, within 15 min (% of α-DsbB [SSCC] oxidized) [6] was 50.
